The subject of one assay is C57BL/6 mice. Kind of assay: Enhancing antibody production: serum anti-OVA IgG2a by ELISA. The assay is classed as in vivo, mouse. The conditions noted are these: 25 μg GSL-7 and 25 μg OVA through the caudal vein, serum after 14 days, ELISA absorbance at 405 nm. The protocol:
Liposome F (in an amount so that 25 μg of GSL-7 and 25 μg of OVA were contained) was administered to C57BL/6 mice (8- to 10-week-old females) through the caudal vein. After 14 days, blood was collected and then serum anti-OVA antibody levels were measured by ELISA. An anti-OVA antibody titer (IgG2a) was assayed by adding the gradually diluted serum to a 96-well plate coated with OVA. Alkaline phosphatase (AP)-labeled anti-mouse IgG2a antibodies were used as detection antibodies. The color was developed using paranitrophenylphosphate (p-nitrophenyl phosphate) as a substrate. The reaction was terminated with 3N NaOH, the absorbance at 405 nm was measured using a microplate reader.
Background: An ELISA detects its analyte on a solid surface through an enzyme-linked reagent.

In assay [1] the test system is splenocytes stimulated with OVA. The assay is described as follows: Antigen-specific IFN-γ production from splenocytes of treated mice. In kind it is in vivo, mouse. Conditions: 25 μg GSL-7 i.v.; spleen after 1 week; splenocytes stimulated with OVA 1 mg/ml, 96 hours. As to the method: Liposome F (prepared in an amount so that 25 μg of GSL-7 was contained) prepared as in Example 14 was administered to C57BL/6 mice (8- to 10-week-old males) through the caudal vein. After 1 week, the spleen was excised. Splenocytes (5×10^5) were stimulated with OVA (1 mg/ml). After 96 hours, IFN-γ levels in the culture supernatants were measured. IFN-γ levels were measured by sandwich ELISA using purified anti-IFN-γ antibodies (R4-6A2) as capture antibodies and biotin-labeled anti-IFN-γ antibodies (AN-18) as detection antibodies. In the subsequent reaction, alkaline phosphatase-labeled streptavidin was caused to bind to biotin-labeled antibodies. The color was developed using p-nitrophenyl phosphate as a substrate. The absorbance at a wavelength of 405 nm was measured using a microplate reader (MICROPLATE READER Model 550). IFN-γ concentrations in test samples were calculated based on the standard curve of IFN-γ in the recombinant mice.

B1: OVA: ovalbumin (OVA) (SIGMA), antigen (protein, UniProt P01012 2-386, looked up)
Ovalbumin: GSIGAASMEFCFDVFKELKVHHANENIFYCPIAIMSALAMVYLGAKDSTRTQINKVVRFDKLPGFGDSIEAQCGTSVNVHSSLRDILNQITKPNDVYSFSLASRLYAEERYPILPEYLQCVKELYRGGLEPINFQTAADQARELINSWVESQTNGIIRNVLQPSSVDSQTAMVLVNAIVFKGLWEKAFKDEDTQAMPFRVTEQESKPVQMMYQIGLFRVASMASEKMKILELPFASGTMSMLVLLPDEVSGLEQLESIINFEKLTEWTSSNVMEERKIKVYLPRMKMEEKYNLTSVLMAMGITDVFSSSANLSGISSAESLKISQAVHAAHAEINEAGREVVGSAEAGVDAASVSEEFRADHPFLFCIKHIATNAVLFFGRCVSP
For B1, the “Anti-OVA IgG2a” value with C57BL/6 mice came out at 0.049 ± 0.018. In assay [1], this molecule returned an IFN-γ of 4.79 ± 0.45 ng/mL.
